Publication PMC9038204 (PLoS Biology, 2022)

B1: isolated FERM domain of human SNX27 (domain or fragment, UniProt Q96L92 269-531, looked up)
chain: YNGVSDVELRVALPDGTTVTVRVKKNSTTDQVYQAIAAKVGMDSTTVNYFALFEVISHSFVRKLAPNEFPHKLYIQNYTSAVPGTCLTIRKWLFTTEEEILLNDNDLAVTYFFHQAVDDVKKGYIKAEEKSYQLQKLYEQRKMVMYLNMLRTCEGYNEIIFPHCACDSRRKGHVITAISITHFKLHACTEEGQLENQVIAFEWDEMQRWDTDEEGMAFCFEYARGEKKPRWVKIFTPYFNYMHECFERVFCELKWRKENIFQM
notes: FERM domain of human SNX27; pET-28a, TEV site between His-tag and SNX27; also called hSNX27_(FERM); source: E. coli BL21 (DE3), purified (TALON or Ni-NTA, SEC, Mono Q)

Legend:
Settings in all cases: both partners purified
full-length mouse SNX27 [1] = target: T1, full-length mouse SNX27 (mouse, UniProt Q3UHD6 1-539); test: ITC; 800 μM SNX1 or SNX2 peptide titrated into 20 μM mSNX27FL; 25°C; 50 mM HEPES pH 7.5, 200 mM NaCl, 5% glycerol, 1 mM β-ME with 1:10 peptide buffer (100 mM Tris-HCl pH 10.6); single-site model
T1 construct: sorting nexin-27 (SNX27), mouse; also called mSNX27FL

[2] = target: B1; test: ITC; 800 μM hSNX27 FERM titrated into 20 μM GST-mSNX1(1-139) or His-SNX1FL; 25°C; 50 mM HEPES pH 7.5, 200 mM NaCl, 5% glycerol, 1 mM β-ME; single-site model
[3] = target: T2, full-length mouse SNX1 with an amino-terminal His-tag (mouse, UniProt Q9WV80 1-522); test: as above
T2 construct: sorting nexin-1 (SNX1), mouse; vector pMW172Kan; also called mSNX1FL; His-SNX1FL; source: E. coli BL21 CodonPlus (DE3), purified (TALON or Ni-NTA, SEC); not shown: His-tag, N-terminal, kept

full-length mouse SNX27 [4] = target: T3, full-length mouse SNX27 (mouse, UniProt Q3UHD6 1-539); test: ITC; 800 μM hSNX1 or hSNX2 peptide (syringe) titrated into 20 μM mSNX27FL (cell); 25°C; 50 mM HEPES pH 7.5, 200 mM NaCl, 5% glycerol, 1 mM β-ME with 1:10 peptide buffer (100 mM Tris-HCl pH 10.6); single-site model
T3 construct: sorting nexin-27 (SNX27), mouse, full length; pMCSG7 vector by ligation-independent cloning; also called mSNX27FL

[5] = target: T4, full-length human SNX27, wild-type (human, UniProt Q96L92 1-541); test: ITC; 600 μM SNX1 75-92 peptide titrated into 20 μM hSNX27 wild-type or single-site mutant; 25°C; 50 mM HEPES pH 7.5, 200 mM NaCl, 5% glycerol, 1 mM β-ME; single-site model
T4 construct: sorting nexin-27 (SNX27), human; pET-28a, TEV site between His-tag and SNX27; also called hSNX27FL; hSNX27 WT; source: E. coli BL21 (DE3), purified (TALON or Ni-NTA, SEC)

human SNX27 K496D = target: T5, human SNX27 K496D (human, UniProt Q96L92 1-541, K496D); test: as above
T5 construct: human SNX27 single-site mutant; printed as R496D in the text and as K496D in the legend and the methods; also called hSNX27 K496D; SNX27(R496D); source: E. coli BL21 (DE3), purified (TALON or Ni-NTA, SEC)

[6] = target: T6, full-length human SNX27, wild type (human, UniProt Q96L92 1-541); test: ITC; 600 μM hSNX1(75-92) peptide (syringe) titrated into 20 μM hSNX27FL wild type or single-site mutant (cell); 25°C; 50 mM HEPES pH 7.5, 200 mM NaCl, 5% glycerol, 1 mM β-ME; single-site model
T6 construct: sorting nexin-27 (SNX27), human, full length; also called hSNX27FL; hSNX27 WT

Kd (full-length mouse SNX27 [1])	Kd (full-length mouse SNX27 [4])	Binder	other results
33.4 µM	–	EAGDSDTEGEDIFTGAA (human SNX1 residues 35 to 51; also called first aDLF motif of human SNX1; source: synthetic peptide (Genscript)) [SNX1_(35-51) peptide]	–
–	–	GST-mSNX1(1-139) (domain or fragment, mouse, UniProt Q9WV80 1-139, looked up, mouse SNX1 residues 1 to 139; vector pGEX4T-2, thrombin-cleavable GST; eluted with glutathione and named GST-mSNX1(1-139) in the ITC; also called amino-terminal extension of mouse SNX1; source: E. coli BL21 CodonPlus (DE3), purified (glutathione Sepharose, SEC); not shown: GST, N-terminal, kept) MASGGGGCSASERLPPPFPGMDPESEGAAGASEPEAGDSDTEGEDIFTGAAAATKPQSPKKTTSLFPIKNGSKENGIHEDQDQEPQDLFADATVELSLDSTQNNQKTMPGKTLTSHSPQEATNSPKPQPSYEELEEEEQ	Kd [2]: 39.1 µM
–	–	B1	Kd [3]: 41 µM
–	33.4 ± 1.89 µM	EAGDSDTEGEDIFTGAA (sorting nexin-1 (SNX1), human, residues 35 to 51; also called hSNX1 35-51; SNX1_(35-51); source: synthetic peptide (Genscript)) [human SNX1 peptide, residues 35-51 (first aDLF motif)]	–
37.8 µM	–	TDFEDLEDGEDLFTSTVS (human SNX2 residues 16 to 33; also called first aDLF motif of SNX2; source: synthetic peptide (Genscript)) [SNX2_(16-33) peptide]	–
22.6 µM	–	TEVVLDDDREDLFAEATEEVS (human SNX2 residues 62 to 82; also called second aDLF motif of SNX2; source: synthetic peptide (Genscript)) [SNX2_(62-82) peptide]	–
13.3 µM	–	NGIHEEQDQEPQDLFADA (human SNX1 residues 75 to 92; also called second aDLF motif of human SNX1; source: synthetic peptide (Genscript)) [SNX1_(75-92) peptide]	Kd [5]: 12.7 µM; Kd (human SNX27 K496D): 56.4 µM
–	13.4 ± 0.75 µM	NGIHEEQDQEPQDLFADA (sorting nexin-1 (SNX1), human, residues 75 to 92; also called hSNX1 75-92; SNX1_(75-92); source: synthetic peptide (Genscript)) [human SNX1 peptide, residues 75-92 (second aDLF motif)]	Kd [6]: 12.8 ± 0.47 µM
–	22.6 ± 1.89 µM	TEVVLDDDREDLFAEATEEVS (sorting nexin-2 (SNX2), human, residues 62 to 82; also called hSNX2 62-82; SNX2_(62-82); source: synthetic peptide (Genscript)) [human SNX2 peptide, residues 62-82 (second aDLF motif)]	–
